From IntAct's records for PubMed 27773430

Assays:
[1] = target: pidd1_human PIDD1 (UniProt Q9HB75)
[2] = target: casp2_rat Casp2 (UniProt P55215)
Chain of casp2_rat Casp2 (P55215 whole entry): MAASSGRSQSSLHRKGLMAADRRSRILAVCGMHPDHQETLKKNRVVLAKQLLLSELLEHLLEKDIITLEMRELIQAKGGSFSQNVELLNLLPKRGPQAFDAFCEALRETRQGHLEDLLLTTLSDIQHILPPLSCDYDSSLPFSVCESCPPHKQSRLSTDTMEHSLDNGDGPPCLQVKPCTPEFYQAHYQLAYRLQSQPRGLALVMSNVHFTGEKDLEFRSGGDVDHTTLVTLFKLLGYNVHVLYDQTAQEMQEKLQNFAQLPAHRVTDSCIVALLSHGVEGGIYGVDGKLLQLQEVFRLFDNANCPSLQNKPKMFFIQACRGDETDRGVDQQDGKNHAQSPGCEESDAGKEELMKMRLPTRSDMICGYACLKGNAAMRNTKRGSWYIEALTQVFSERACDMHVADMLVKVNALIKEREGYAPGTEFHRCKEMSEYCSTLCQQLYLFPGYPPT

Chain of pidd1_human PIDD1 (Q9HB75 whole entry): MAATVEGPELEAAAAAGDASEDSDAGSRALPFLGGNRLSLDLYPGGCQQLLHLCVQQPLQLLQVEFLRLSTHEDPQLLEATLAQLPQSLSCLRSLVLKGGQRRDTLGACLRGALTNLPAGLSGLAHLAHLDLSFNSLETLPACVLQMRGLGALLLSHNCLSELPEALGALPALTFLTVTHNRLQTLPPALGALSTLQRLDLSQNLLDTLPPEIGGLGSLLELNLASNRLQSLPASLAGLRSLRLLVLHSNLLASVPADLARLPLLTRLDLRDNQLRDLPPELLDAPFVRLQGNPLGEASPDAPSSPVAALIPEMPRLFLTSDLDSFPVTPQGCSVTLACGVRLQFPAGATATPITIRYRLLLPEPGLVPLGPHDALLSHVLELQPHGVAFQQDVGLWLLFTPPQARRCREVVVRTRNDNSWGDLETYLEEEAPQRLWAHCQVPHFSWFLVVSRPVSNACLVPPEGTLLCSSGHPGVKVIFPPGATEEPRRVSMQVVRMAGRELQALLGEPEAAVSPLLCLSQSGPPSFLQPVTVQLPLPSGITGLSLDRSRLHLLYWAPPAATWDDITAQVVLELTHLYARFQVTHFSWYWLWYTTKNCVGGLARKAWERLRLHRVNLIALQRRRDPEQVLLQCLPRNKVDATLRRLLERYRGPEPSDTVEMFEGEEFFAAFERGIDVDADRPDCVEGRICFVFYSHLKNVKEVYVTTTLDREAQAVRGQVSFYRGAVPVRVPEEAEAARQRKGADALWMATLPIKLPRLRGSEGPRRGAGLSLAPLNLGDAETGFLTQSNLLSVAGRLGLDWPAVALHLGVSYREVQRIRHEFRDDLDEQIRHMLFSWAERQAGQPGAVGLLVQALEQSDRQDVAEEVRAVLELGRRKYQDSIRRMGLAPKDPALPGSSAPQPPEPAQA
Chain of Death domain-containing protein CRADD (Homo sapiens), P78560 R170H (P78560 whole entry R170H, the tested form may be a part): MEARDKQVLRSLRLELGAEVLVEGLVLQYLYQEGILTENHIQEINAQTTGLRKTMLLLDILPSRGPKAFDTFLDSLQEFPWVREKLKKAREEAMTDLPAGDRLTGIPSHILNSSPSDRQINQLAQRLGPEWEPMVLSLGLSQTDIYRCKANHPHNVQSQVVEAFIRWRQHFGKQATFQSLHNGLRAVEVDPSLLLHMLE
Chain of Death domain-containing protein CRADD (Homo sapiens), P78560 R170C (P78560 whole entry R170C, the tested form may be a part): as the sequence (P78560 whole entry R170H, the tested form may be a part) above, with H170C counted along it
Chain of Death domain-containing protein CRADD (Homo sapiens), P78560 G128R (P78560 whole entry G128R, the tested form may be a part): as the sequence (P78560 whole entry R170H, the tested form may be a part) above, with G128R, H170R counted along it
Chain of Death domain-containing protein CRADD (Homo sapiens), P78560 F164C (P78560 whole entry F164C, the tested form may be a part): as the sequence (P78560 whole entry R170H, the tested form may be a part) above, with F164C, H170R counted along it

Substance | effect of a mutation on the interaction [1] | effect of a mutation on the interaction [2]
Death domain-containing protein CRADD (Homo sapiens), P78560 F164C | with no effect | with no effect
Death domain-containing protein CRADD (Homo sapiens), P78560 G128R | disrupting interaction strength | decreasing interaction strength
Death domain-containing protein CRADD (Homo sapiens), P78560 R170C | decreasing interaction strength | decreasing interaction strength
Death domain-containing protein CRADD (Homo sapiens), P78560 R170H | decreasing interaction strength | decreasing interaction strength
